Results from publication PMC12262184, “Structural insights into transcriptional regulation by the helicase RECQL5” (Nature Structural & Molecular Biology, 2025).

Target: RPB1 subunit of human RNA polymerase II (human (endogenous in HeLa), UniProt P24928 1-1970)
Test: cryo-EM structure; EC_(REC-Apo): Pol II on anti-RPB1-protein G resin incubated with tenfold excess of nucleic acid scaffold, then tenfold excess of RECQL5_(1–620)-D157A, no nucleotide; eluted with RPB1 triheptapeptide repeat; crosslinked with 0.02% glutaraldehyde; graphene oxide grids
Conditions: both partners purified

B1: RECQL5_(1–620)-D157A (domain or fragment)
chain: MSSHHTTFPFDPERRVRSTLKKVFGFDSFKTPLQESATMAVVKGNKDVFVCMPTGAGKSLCYQLPALLAKGITIVVSPLIALIQDQVDHLLTLKVRVSSLNSKLSAQERKELLADLEREKPQTKILYITPEMAASSSFQPTLNSLVSRHLLSYLVVAEAHCVSQWGHDFRPDYLRLGALRSRLGHAPCVALTATATPQVQEDVFAALHLKKPVAIFKTPCFRANLFYDVQFKELISDPYGNLKDFCLKALGQEADKGLSGCGIVYCRTREACEQLAIELSCRGVNAKAYHAGLKASERTLVQNDWMEEKVPVIVATISFGMGVDKANVRFVAHWNIAKSMAGYYQESGRAGRDGKPSWCRLYYSRNDRDQVSFLIRKEVAKLQEKRGNKASDKATIMAFDALVTFCEELGCRHAAIAKYFGDALPACAKGCDHCQNPTAVRRRLEALERSSSWSKTCIGPSQGNGFDPELYEGGRKGYGDFSRYDEGSGGSGDEGRDEAHKREWNLFYQKQMQLRKGKDPKIEEFVPPDENCPLKEASSRRIPRLTVKAREHCLRLLEEALSSNRQSTRTADEADLRAKAVELEHETFRNAKVANLYKASVLKKVADIHRASKDGQPYDM
notes: RECQL5 helicase, human, residues 1-620 (helicase D1 and D2 subdomains, RQC domain, IRI module with αN helix and KIX domain); lacks the unstructured region and the SRI domain; The purification is described for GST-tagged RECQL5_(1–620) in general; Used without nucleotide in EC_(REC-Apo); also called truncated RECQL5 construct; source: E. coli BL21-CodonPlus (DE3)-RIL, purified (glutathione …)
binding result: binds
